Measured values from patent US20160376353A1 (DECIMMUNE THERAPEUTICS, published 2016).
Substitutions are numbered along the chain they refer to. Numbers in names are those of the source. Ends that are not written are not given here.

T1: N2 peptide (non-muscle myosin neo-epitope N2 12mer sequence)
T1 construct: also called N2 12-mer peptide
T1 peptide: LMKNMDPLNDNV

T2: Biotin-labeled N2 peptide (also: biotin label, position not given here)
T2 construct: also called immobilized N2
T2 peptide: LMKNMDPLNDNV

B1: H4-21G6 / L2-21G6, human IgG1 N297Q (antibody, V domains shown)
VH: QVQLVQSGAEVKKPGASVKVSCKASGYTFTSYYMYWVRQAPGQGLEWMGGINPSNGGTNFNEKFKSRVTMTTDTSTSTAYMELRSLRSDDTAVYYCTRWGYDREWFAYWGQGTLVTVSS
VL: DIVMTQSPLSLPVTPGEPASISCRSSKSLLHSNGNTYLYWFLQKPGQSPQLLIYRMSNLASGVPDRFSGSGSGTDFTLKISRVEAEDVGVYYCMQHLEYPFTFGQGTKLEIKR
notes: also called H4/L2 N297Q
B2: Murine 21G6 antibody (antibody, V domains shown)
VH: QVQLQQPGAELVKPGASVKLSCKASGYTFTSYYMYWVKQRPGQGLEWIGGINPSNGGTNFNEKFKSKATLTVDKSSSTAYMQLSSLTSEDSAVYYCTRWGYDREWFAYWGQGTLVTVSA
VL: DIVMTQAAPSVPVTPGESVSISCRSSKSLLHSNGNTYLYWFLQRPGQSPQVLIYRMSNLASGVPDRFSGSGSGTAFTLRISRVEAEDVGVYYCMQHLEYPFTFGSGTKLEIKR
notes: also called m21G6
B3: Chimeric 21G6, human heavy chain constant region IgG4 (antibody, V domains shown)
VH: B2 VH
VL: B2 VL
notes: Human IgG4 constant region; also called CHIgG4 / Ch; ch21G6 IgG4
B4: Chimeric 21G6, human heavy chain constant region IgG1 with Q297 mutation (antibody, V domains shown)
VH: B2 VH
VL: B2 VL
notes: Human IgG1 constant region with Asn 297 to Gln; also called ch21G6 N297Q
B5: H2-21G6 / L2-21G6 (Table 2, constant region not stated) (antibody, V domains shown)
VH: B1 VH with M48I, R67K, V68A, T72V, T74K, T91S
VL: B1 VL
notes: human kappa light chain; also called H2/L2
B6: H1-21G6 / L3-21G6 (Table 2, constant region not stated) (antibody, V domains shown)
VH: B2 VH with Q5V, P7S, L11V, R40A, S76A, Q82E, T87R, S91T, A119S
VL: B1 VL with S7T, P12S, V13Y, E17Q
notes: human kappa light chain; also called H1/L3
B7: H2-21G6 / L3-21G6 (Table 2, constant region not stated) (antibody, V domains shown)
VH: B1 VH with M48I, R67K, V68A, T72V, T74K, T91S
VL: B1 VL with S7T, P12S, V13Y, E17Q
notes: human kappa light chain; also called H2/L3
B8: H3-21G6 / L1-21G6 (Table 2, constant region not stated) (antibody, V domains shown)
VH: B1 VH with A16S, M48I, R67K, V68A, M70I, T72V, T74K, R84S, D89E
VL: DIVMTQSPATLSVSPGERATISCRSSKSLLHSNGNTYLYWFQQKPGQPPKVLIYRMSNLASGVPARFSGSGSGTDFTLTISSVEPEDFATYYCMQHLEYPFTFGGGTKLEIKR
notes: human kappa light chain; also called H3/L1
B9: H1-21G6 / L1-21G6 (Table 2, constant region not stated) (antibody, V domains shown)
VH: B2 VH with Q5V, P7S, L11V, R40A, S76A, Q82E, T87R, S91T, A119S
VL: B8 VL
notes: human kappa light chain; also called H1/L1

Assays:
[1] = molecular target: T1, N2 peptide (non-muscle myosin …); assay: SPR (BIACORE X100), IgG capture and direct immobilization of antibody, N2 peptide in solution
Description: (§1) The remaining sequences represent the germline sequences with the highest homology that encode productive antibody. All of the humanized sequences maintain the murine 21G6 CDR regions which are shown inside the boxes in FIG. 1. The humanized variable regions were cloned into a vector containing wild type human IgG1, human IgG1 containing a mutation at amino acid 297 (Asn 297 to Q297), human IgG4 containing a mutation at amino acid 228 (serine to proline) and human kappa light chain. Each antibody (heavy and light) combination was expressed by transient co-transfection in 293A cells (in the presence of low Ig serum). The antibody containing supernatants were collected and analyzed for binding to the N2 peptide by ELISA and BIACORE™ X100 system. All experiments were performed using a BIACORE™ X100 system. […]

[2] = molecular target: T2, Biotin-labeled N2 peptide; assay: SPR (BIACORE X100), biotin-N2 peptide on NeutrAvidin chip, antibody in solution; steady state affinity
Description: (§2) The humanized variable regions were cloned into a vector containing wild type human IgG1, human IgG1 containing a mutation at amino acid 297 (Asn 297 to Q297), human IgG4 containing a mutation at amino acid 228 (serine to proline) and human kappa light chain. Each antibody (heavy and light) combination was expressed by transient co-transfection in 293A cells (in the presence of low Ig serum). The antibody containing supernatants were collected and analyzed for binding to the N2 peptide by ELISA and BIACORE™ X100 system. All experiments were performed using a BIACORE™ X100 system. For antibody capture experiments, a CM5 chip was prepared by 10 ul/minute injection of EDC/NHS (N-ethyl-N′-(3-dimethylaminopropyl) carbodiimide (EDC), N-hydroxysuccinimide (NHS) for 7 minutes, followed by a 10 ul/minute injection of anti-human Fc (GE Lifesciences) at a concentration of 25 ug/ml in sodium acetate at pH 5 for 3 minutes. Ethanolamine-HCl was injected for 7 minutes at 10 ul/minute. The chimeric or humanized antibodies were captured onto flow cell 2 and N2 peptide at varying concentrations was flowed over flow cells 1 and 2 at a rate of 30 ul/minute with a contact time of 120 seconds and a dissociation period of 120 seconds. Complete removal of captured antibody was accomplished by regeneration with 3M MgCl2 for 30 seconds at a flow rate of 10 ul/minute. For peptide immobilized experiments, a CM5 chip was prepared by 10 ul/minute injection of EDC/NHS (N-ethyl-N′-(3-dimethylaminopropyl) carbodiimide (EDC), N-hydroxysuccinimide (NHS) for 7 minutes, followed by a 10 ul/minute injection of NEUTRAVIDIN® protein (ThermoFisher Pierce) at a concentration of 5 ug/ml in sodium acetate, pH 5 to an immobilization response of 100-200RU. Ethanolamine-HCl was injected for 7 minutes at 10 ul/minute. Biotin-labeled N2 peptide was captured on flow channel 2 with the goal of an experimental Rmax of about 50-100RU. Purified chimeric or humanized antibodies were flowed over both flow channels at a rate of 30 ul/min for a contact time of 120 seconds and allowed to dissociate for 600 seconds.

[3] = molecular target: T2, Biotin-labeled N2 peptide; assay: SPR (BIACORE X100), biotin-N2 peptide on NeutrAvidin chip, antibody in solution; upper end of the printed range 1-11
Description: as §1

[4] = molecular target: T2, Biotin-labeled N2 peptide; assay: SPR (BIACORE X100), biotin-N2 peptide on NeutrAvidin chip, antibody in solution; kd/ka (monovalent)
Description: as §2, with “The remaining sequences represent the germline sequences with the highest homology that encode productive antibody. All of the humanized sequences maintain the murine 21G6 CDR regions which are shown inside the boxes in FIG. 1. The humanized” for “The humanized”

[5] = molecular target: T1, N2 peptide (non-muscle myosin …); assay: SPR (BIACORE X100), immobilized antibody, N2 peptide in solution; lower end of the printed range 4-6 uM
Description: as §1

[6] = molecular target: T2, Biotin-labeled N2 peptide; assay: SPR (BIACORE X100), biotin-N2 peptide on NeutrAvidin chip, antibody in solution; upper end of the printed range 5-53
Description: as §1

[7] = molecular target: T1, N2 peptide (non-muscle myosin …); assay: SPR (BIACORE X100), antibody captured by anti-human Fc, N2 peptide in solution
Description: as §2, with “The remaining sequences represent the germline sequences with the highest homology that encode productive antibody. All of the humanized sequences maintain the murine 21G6 CDR regions which are shown inside the boxes in FIG. 1. The humanized” for “The humanized”

[8] = molecular target: T2, Biotin-labeled N2 peptide; assay: SPR (BIACORE X100), biotin-N2 peptide on NeutrAvidin chip, antibody in solution; upper end of the printed range 7-19
Description: as §1

[9] = molecular target: T2, Biotin-labeled N2 peptide; assay: SPR (BIACORE X100), biotin-N2 peptide on NeutrAvidin chip, antibody in solution; upper end of the printed range 7-10
Description: as §1

[10] = molecular target: T2, Biotin-labeled N2 peptide; assay: SPR (BIACORE X100), biotin-N2 peptide on NeutrAvidin chip, antibody in solution; upper end of the printed range 8.6-9.1
Description: as §1

[11] = molecular target: T2, Biotin-labeled N2 peptide; assay: SPR (BIACORE X100), biotin-N2 peptide on NeutrAvidin chip, antibody in solution; upper end of the printed range 2.0-3.2
Description: as §1

[12] = molecular target: T2, Biotin-labeled N2 peptide; assay: SPR (BIACORE X100), biotin-N2 peptide on NeutrAvidin chip, antibody in solution; upper end of the printed range 3-6.5
Description: as §1

[13] = molecular target: T2, Biotin-labeled N2 peptide; assay: SPR (BIACORE X100), biotin-N2 peptide on NeutrAvidin chip, antibody in solution; upper end of the printed range 2.0-5.2
Description: as §1

[14] = molecular target: T2, Biotin-labeled N2 peptide; assay: SPR (BIACORE X100), biotin-N2 peptide on NeutrAvidin chip, antibody in solution; upper end of the printed range 4.3-6.5
Description: as §1

[15] = molecular target: T2, Biotin-labeled N2 peptide; assay: SPR (BIACORE X100), biotin-N2 peptide on NeutrAvidin chip, antibody in solution; upper end of the printed range 1.5-4.3
Description: as §1

Row | Binder | Kd [2] | Kd [4] | also measured
1 | B1 |  |  | Kd [1]: 6000 to 11000 nM
2 | B2 | 313 to 540 nM | 200 to 400 nM | kon [3]: 110000 M⁻¹ s⁻¹; Kd [5]: 4000 to 6000 nM; koff [6]: 0.053 s⁻¹
3 | B3 | 113 nM | 800 nM | Kd [7]: 4100 nM
4 | B4 | 196 to 240 nM | 100 to 200 nM | koff [8]: 0.019 s⁻¹; kon [9]: 100000 M⁻¹ s⁻¹; Kd [7]: 5600 nM
5 | B5 | 240 nM | 280 to 420 nM | koff [10]: 0.0091 s⁻¹; kon [11]: 32000 M⁻¹ s⁻¹
6 | B6 | 1000 nM | 1580 nM | 
7 | B7 | 680 nM | 140 nM | 
8 | B8 | 280 nM | 300 nM | koff [12]: 0.0065 s⁻¹; kon [13]: 52000 M⁻¹ s⁻¹
9 | B9 | 320 nM | 100 to 430 nM | koff [14]: 0.0065 s⁻¹; kon [15]: 43000 M⁻¹ s⁻¹
